Data reported in the supplement of paper PMC9170038.

Test system: MS2 coat protein
Assay: apparent KD of MS2 coat protein; designed switch direction (-1 OFF switch, 1 ON switch): -1; higher = weaker reporter binding
In short: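 Each step of the titration lasted 0.8–1.5 h at the lowest concentration and 10–20 min at the highest. The protein, SNAP-549-labelled MS2 coat protein, went from 0.7 or 1.5 nM doubling to 3 µM over RNA switches transcribed on Illumina chips by stalled E. coli RNA polymerase. Normalised cluster fluorescence was curve-fitted, and the per-design median over clusters is given as apparent KD.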

[1] = Eterna round: R95, input ligand: FMN 200 uM
[2] = Eterna round: R95, input ligand: microRNA oligo, concentration not stated
[3] = Eterna round: R95, input ligand: none
[4] = input ligand: microRNA oligo, concentration not stated

Row | Sequence | apparent KD of MS2 coat protein (input ligand: FMN 200 uM) [nM] | apparent KD of MS2 coat protein (input ligand: none) [nM] | apparent KD of MS2 coat protein [2] [nM] | further results
1 | UUCACAUGGACAUGAGAUCACAUGAGGAUCACCCAUGUGAAUAACAAGCUUUUUGCUCGUCUUAUGUCCAAUAAUAU [Stov1/14-C3] (Eterna round: R97, puzzle: Sensor, turn-off variant 1) | 13.1 | 13.1 |  | 
2 | UUUUAGAGAGGAUAUAUAUUGUGAAACAUGAGGAUCACCCAUGUAAUAAUAUGGAUGUAAAUAGAAGGCUCAUUUA [JL-ex5-3.03] (puzzle: Exclusion 5) |  |  | 44.6 | apparent KD of MS2 coat protein [1]: 37.5 nM; apparent KD of MS2 coat protein [3]: 42.7 nM
3 | ACAUGAGGAUCACCCAUGUUUUUUGGGUACUCUUGUUUCUGCAAGGAUAUGCAUUAUUUAUGUACGCAGAAGGUGCAUUACGUC [JR_ExcNG3_Sub062] (Eterna round: R96, puzzle: Exclusion NG 3) | 696 | 962 |  | apparent KD of MS2 coat protein [4]: 692 nM
4 | GGAUGAGAGCAGGAUAUCUUAUAAAUGUAUGAAAGAGAAGGGCUCACAUGAGGAUCACCCAUGUGGUCCUAGAU [jl-ex6-4.73 jandersonlee mod] (Eterna round: R97, puzzle: Exclusion 6) | 280 | 35.9 |  | 
5 | GCUAUGCAAGGAUAUACAAGAUUAUGACAAGCGUGGAAACGACAUGAGGAUCACCCAUGUAGAAGGUGUUAUGC [Eternabot (L2) Solution 56] (Eterna round: R97, puzzle: Exclusion 2) | 58.1 | 65.5 |  | 
6 | CUGAGUGGAGGAUAUACAUGAGGAUCACCCAUGUAAAGUAGCUUGCGUACAGGCAGAUGUAGAAGGUCAUUCGG [Mod of JL 12 - Jieux - Exclusion 3] (Eterna round: R97, puzzle: Exclusion 3) | 28.2 | 10.3 |  | 
7 | GCCAUGUGAGGAUAUGUGGUCGAAUAUGAAAGUGAUUGACCAUAGAAGGCACAUGAGGAUCACCCAUGUCCUUU [Eternabot (L2) Solution 64] (Eterna round: R97, puzzle: Exclusion 4) | 131 | 27.3 |  | 
8 | GUGCAAUGAGGAUAUACGUUGGUGAACAUCUGUGUGCUCCUACAUGAGGAUCACCCAUGUAGAAGGCAUGUCAC [LRO-Excl2-18] (puzzle: Exclusion 2) |  |  | 11.3 | 
9 | UUAAAUCAUGUAGGAUAUGCGUGGAGAAGCUAUGCAGAAGGACAUGAGGAUCACCCAUGUGCUUCCGUCUGAGAACAGACGGUA [Mat - Exclusion NG 1 - Mod of JL - D13] (Eterna round: R96, puzzle: Exclusion NG 1) | 210 | 45.7 |  | apparent KD of MS2 coat protein [4]: 49.9 nM
10 | GUUAAGUGAGGAUAUGGUGAGUAGUGCCAGAGCGCUGCUCACCAGAAGGCACAUGAGGAUCACCCAUGUAUAGC [Mat - Exclusion 4 - Mod of JL - D15] (puzzle: Exclusion 4) |  |  | 13 | 
11 | GAGCCACAUGAGGAUCACCCAUGUGAGGAUAUCAUGCUUCGUAGUAAACUACGAAGUGUGAGAAGGCACAAUGG [Omei Ex1 C5] (Eterna round: R97, puzzle: Exclusion 1) | 233 | 99.7 |  | 
12 | CCCGAGCUAGGAUAUGCACAAGGUAUCGAUCCACAACACACACAUGAGGAUCACCCAUGUAGAAGGAGCAUCGU [Eternabot (L2) Solution 27] (Eterna round: R97, puzzle: Exclusion 2) | 165 | 77.9 |  | 
13 | UUCCAACAUGAGGAUCACCCAUGUCAGGAUAUCUAGGCUACUGCUACCACAAUUAGCUAGAGAAGGGACAAGAU [EX1 B.14] (Eterna round: R97, puzzle: Exclusion 1) | 26.1 | 19.5 |  | 
14 | CUUUUAAAGCAACAUCAGCACAUGAGGAUCACCCAUGUGGCGUCCCGACUGUGCACGAUUGCUCGUCUUGACUGUAU [Eternabot (L1) Solution 25] (Eterna round: R97, puzzle: Sensor, turn-off variant 1) | 179 | 185 |  | 
15 | GUCAUGUCAGGAUAUGCUUAUGAUGGGUGCUCAGACAUGAUGCAGAAGGGACAUGAGGAUCACCCAUGUACUGA [EX4 #15] (Eterna round: R97, puzzle: Exclusion 4) | 84.8 | 68.3 |  | 
16 | AGGAAUCUAGGAUAUAUAUGAAACGAUCCAGAUUCAAGGAAACAUGAGGAUCACCCAUGUAGAAGGAGAGAAAA [EX2 A.17] (Eterna round: R97, puzzle: Exclusion 2) | 23.4 | 21.5 |  | 
17 | GGACAACAUGAGGAUCACCCAUGUCAGGAUAUGACGGCGUCGGCGAAAGCGGAGGCGGUCAGAAGGGACGGUAA [AK-MS2ROC-r4-exclusion1-10.1] (Eterna round: R97, puzzle: Exclusion 1) | 115 | 51.9 |  | 
18 | CGUCAGUCAGGAUAUACUUACGUAGACAUGAGGAUCACCCAUGUGACGUGGGACUGGUGAGUAGAAGGGACGAACA [EX5 #76] (Eterna round: R97, puzzle: Exclusion 5) | 27.3 | 18.1 |  | 

Row | Sequence | apparent KD of MS2 coat protein (input ligand: FMN 200 uM) [nM] | apparent KD of MS2 coat protein (input ligand: none) [nM] | apparent KD of MS2 coat protein [2] [nM] | further results
19 | AUUCCUCCUGUUAGGAUAUGCAUCGGGCUUCCGCAGCAGAAGGAACAUGAGGAUCACCCAUGUCAAAUAAAAUC (Eterna round: R97, puzzle: Brourd's mod of Exclusion 4) | 231 | 30.2 |  | 
20 | CAGUCGAUAAGAUCAAUUAAUUAACAUGAGGAUCACCCAUGUGAGGAUAUCAGCUCGAUUAGAGCUGAGAAGGCACAACGACUG [ExNG3/17-A1] (Eterna round: R96, puzzle: Exclusion NG 3) | 232 | 46.8 |  | apparent KD of MS2 coat protein [4]: 31.3 nM
21 | GCUCAACAUGAGGAUCACCCAUGUCAGGAUAUGCGAAUUUCAUCAAAAGAUGAAAUUUGCAGAAGGGACUGAGC [Omei Ex1 A31] (Eterna round: R97, puzzle: Exclusion 1) | 27.2 | 22 |  | 
22 | AGCUGUGGCCAAGGAUAUCUAACCUUAAAUACCGACGUAUAGUCGGACAUGAGGAUCACCCAUGUGGAGAAGGUGGUCUCAGCA [Eli eng2 - 043] (Eterna round: R96, puzzle: Exclusion NG 2) |  |  |  | apparent KD of MS2 coat protein [4]: 18.3 nM
23 | CUAUUCCGAGGAUAUACAUGAGGAUCACCCAUGUCGGGCCUCUGGCCUAAGGCCGAAAGUAGAAGGUGGGUUUC [JL Riri mod 10] (puzzle: Exclusion 3) |  |  | 54.2 | 
24 | AGGUGACAUGAGGAUCACCCAUGUAAGGAUAUACGGUUAGUGGAGAGAGGGAAAAGAGGUAGAAGGUACGGAGC [JR_Exclu1_Sub057] (puzzle: Exclusion 1) |  |  | 156 | 
25 | UAAACAAGCUUAAGAUCCUACAUGAGGAUCACCCAUGUGCUCGUCUUAUAAGGUACUGUGACGAAAGUCACGGUACC [JL TOV1 3.06] (Eterna round: R97, puzzle: Sensor, turn-off variant 1) | 226 | 194 |  | 
26 | GUGUAGUCAGGAUAUACAUAGGAAGAGAAUAUAAUAUAAGUACAUGAGGAUCACCCAUGUAGAAGGGACAGUGU [Excluse me!! 8 - Jieux - Exclusion 2] (puzzle: Exclusion 2) |  |  | 29.4 | 
27 | CUAAAUCAUGUAGGAUAUGCAUAGCGAAGCUAUGCAGAAGGACAUGAGGAUCACCCAUGUUCUUCCGUCUGAGUACAGACGGAA [Mat - Exclusion NG 1 - Mod of JL - D31] (Eterna round: R96, puzzle: Exclusion NG 1) | 288 | 34.1 |  | apparent KD of MS2 coat protein [4]: 30.6 nM
28 | GGUUCACGAGGAUAUCGAUUUUAGUACAUGAGGAUCACCCAUGUUGUCCAGGUUUCGAUUCGAGAAGGCGUGAACC [LRO-Ex5-04] (puzzle: Exclusion 5) |  |  | 20.8 | 
29 | AAGAAACAUGAGGAUCACCCAUGUGAGGAUAUGUAAAGAAAAGAAAAAGAAAAGAAAAACAGAAGGCACAAAGA [JR_Exclusion1_Sub001] (puzzle: Exclusion 1) |  |  | 43.6 | apparent KD of MS2 coat protein [1]: 38.7 nM; apparent KD of MS2 coat protein [3]: 34 nM
30 | GCGCGAAGGUAGGAUAUCCGGCGAUCUUCCGUCGGAGAAGGACCCACAUGAGGAUCACCCAUGUGGUGAUCCUG [eternacac ex6r4 sub13] (Eterna round: R97, puzzle: Exclusion 6) | 12 | 23.9 |  | 
31 | AAAGAACAUGAGGAUCACCCAUGUGAGGAUAUGUAAGGAUUGUGGAGAAGAAGAGAGAACAGAAGGCACGGAGG [JR_Exclu1_Sub068] (puzzle: Exclusion 1) |  |  | 32.1 | apparent KD of MS2 coat protein [1]: 36.8 nM; apparent KD of MS2 coat protein [3]: 44.9 nM
32 | CGGAGCGUGGGUAGGUGCAACAUGAGGAUCACCCAUGUCUCACAAGCUUUUUGCUCAUCUUAUUGUACCUUGGUGCU [Sensor v3, turn-off variant 1 (MOD of JL v.2)] (puzzle: Sensor v3, turn-off variant 1) |  |  | 12.3 | apparent KD of MS2 coat protein [1]: 130 nM; apparent KD of MS2 coat protein [3]: 146 nM
33 | GAGGAUAGAGGAUAUGCAUAGAUACGGAUUCGUGUAGUACUACAUGAGGAUCACCCAUGUAGAAGGCUGUCCUG [JL-ex2-2.01 mat747 mod] (puzzle: Exclusion 2) |  |  | 12.9 | 
34 | UAUGGUUAAGUCAGGAUAUACUAAUAGAAGUCUGUGUAGAAGGGACAUGAGGAUCACCCAUGUAUGGUAGUGUU [Ex4 #60] (Eterna round: R97, puzzle: Brourd's mod of Exclusion 4) | 119 | 122 |  | 
35 | CGAUGCUCGUGUCCACAUGAGGAUCACCCAUGUCGAGUUAGCGAGGAUAUCGGUAACACAUAGUACGAGAAGGCGCGAACCUGA [Ex NG3 #27] (Eterna round: R96, puzzle: Exclusion NG 3) | 52.5 | 17.3 |  | apparent KD of MS2 coat protein [4]: 14.6 nM
